Reference: article PMC9729883

Assays:
[1] = target: afucosylated IgG1 and IgG3 (HLA-A2 mAbs, as a group for a mean dissociation rate); assay: BLI; SAX2 tips loaded with biotinylated HLA-A2 (0.25 ug/mL), then recombinant HLA-A2 IgG (3 ug/mL, 600 s), dipped into 5 uM monomeric FcγRIIIa V158; 0.05% Tween-PBS; off-rate from a one phase exponential decay fit, reference tip subtracted
[2] = target: unmodified forms (of BB7.2 IgG1 and IgG3, as a group for a mean dissociation rate); assay: as above

## FcγRIIIa V158 (human, monomeric) (receptor)
[1]
  koff: 0.021 s⁻¹
[2]
  koff: 0.46 s⁻¹
